According to patent publication US20050042220A1 (GENETICS INSTITUTE, published 2005):

T1: IL-22R-Fc/IL-10R2-Fc heterodimer from co-expressing CHO cells (human, UniProt Q8N6P7 16-228; Q08334 20-220)
T1 construct: extracellular domain; also called IL-22R/IL-10R2-Fc heterodimer; IL-22R-Fc/IL-10R2-Fc complex; not shown: human IgG1 Fc
T1 sequence 1: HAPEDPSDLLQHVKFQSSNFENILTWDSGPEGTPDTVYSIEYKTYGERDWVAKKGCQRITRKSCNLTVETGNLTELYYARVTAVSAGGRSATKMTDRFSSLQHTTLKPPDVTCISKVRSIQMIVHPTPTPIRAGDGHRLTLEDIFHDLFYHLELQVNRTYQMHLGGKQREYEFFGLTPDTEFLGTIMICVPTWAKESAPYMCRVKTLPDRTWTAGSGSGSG
T1 sequence 2: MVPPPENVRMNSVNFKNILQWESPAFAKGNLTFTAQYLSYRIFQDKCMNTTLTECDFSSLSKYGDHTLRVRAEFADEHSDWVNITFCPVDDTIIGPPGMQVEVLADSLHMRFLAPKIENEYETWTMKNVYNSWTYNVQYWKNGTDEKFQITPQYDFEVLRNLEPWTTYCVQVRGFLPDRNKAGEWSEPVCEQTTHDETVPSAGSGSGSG

B1: human IL-22 binding protein-Fc fusion (Fc fusion)
chain: TQSTHESLKPQRVQFQSRNFHNILQWQPGRALTGNSSVYFVQYKIYGQRQWKNKEDCWGTQELSCDLTSETSDIQEPYYGRVRAASAGSYSEWSMTPRFTPWWETKIDPPVMNITQVNGSLLVILHAPNLPYRYQKEKNVSIEDYYELLYRVFIINNSLEKEQKVYEGAHRAVEIEALTPHSSYCVVAEIYQPMLDRRSQRSEERCVEIPAGSGSGSG
notes: Fc fusion homodimer, used as CHO conditioned medium; also called IL-22BP-Fc; huIL22BP-huFc; not shown: human IgG1 Fc
B2: human IL-22R extracellular domain-Fc fusion homodimer (Fc fusion)
chain: T1 sequence 1
notes: extracellular domain; Used as CHO conditioned medium, not purified; also called IL-22R-Fc; IL-22RECD-Fc; not shown: human IgG1 Fc
B3: biotinylated N terminal His/Flag tagged human IL-22 (ligand)
chain: GSGHHHHHHGSGDYKDDDDKAPISSHCRLDKSNFQQPYITNRTFMLAKEASLADNNTDVRLIGEKLFHGVSMSERCYLMKQVLNFTLEEVLFPQSDRFQPYMQEVVPFLARLSNRLSTCHIEGDDLHIQRNVQKLKDTVKKLGESGEIKAIGELDLLFMSLRNACI
modifications: biotinylated with EZ-Link Sulfo-NHS-Biotin (sites not given)
notes: also called bio-IL-22; biotinylated IL-22

Columns and labels:
[1] = target: B3; assay: competition ELISA (printed as ND50): IL-22BP-Fc pre-incubated with bio-IL-22 30 ng/ml, binding to captured IL-22R-Fc; IL-22R-Fc homodimer immobilized (FIG. 11A)
Protocol: (§1) After a final set of washes, 100 μl of TMB Microwell peroxidase substrate (BioFX, Owings Mills, Md.) was added for 20 minutes and the reaction stopped with 100 μl 2N H₂SO₄. Colorimetric detection of the peroxidase product was done at 450 nm in a Molecular Devices (Sunnyvale, Calif.) microplate reader.
(§2) For certain ELISA assays of the above format where both the receptor Fc and bio-IL-22 are at a fixed concentration, IL-10R2-Fc was added at various concentrations either before or with bio-IL-22 (FIG. 9A) or after the bio-IL-22 (FIG. 9B). For other ELISA assays of the above format where the indicated receptor Fc and bio-IL-22 are also at a fixed concentration, antibodies (FIG. 10B-10C., 11C) or IL-22BP (FIG. 11A-11B) were added at various concentrations after a pre-incubation with the bio-IL-22 for 30 minutes. For ELISA assays in which the recruitment of IL-10R2-Fc to the IL-22/IL-22R complex was detected directly (data not shown, experimental design of FIG. 9A), non-biotinylated IL-22 was added to the ELISA and either polyclonal goat anti-hIL-10R2 or a mouse monoclonal anti-hIL-10R2 (R&D Systems, Inc, Minneapolis, Minn.) was used as detector.
(§3) IL-22 binding protein (IL-22BP) is a soluble ‘receptor’ for IL-22 that has low homology to the extracellular domain of IL-22R. […]

[2] = target: B3; assay: blocking ELISA: IL-22BP-Fc pre-incubated 30 min with bio-IL-22 (5 ng/ml), added to 50 ng/ml total Fc of co-expressed IL-22R-Fc/IL-10R2-Fc captured on anti-human IgG wells; bound bio-IL-22 read with streptavidin-HRP, A450; blocked partner IL-22R-Fc/IL-10R2-Fc
Protocol: as §1, §2, §3

[3] = target: B3; assay: competition ELISA (printed as ND50): IL-22BP-Fc pre-incubated with bio-IL-22 5 ng/ml, binding to captured IL-22R/IL-10R2-Fc heterodimer (FIG. 11B by its legend); IL-22R/IL-10R2-Fc heterodimer immobilized (FIG. 11B; printed as FIG. 6B)
Protocol: Colorimetric detection of the peroxidase product was done at 450 nm in a Molecular Devices (Sunnyvale, Calif.) microplate reader.
as §2
IL-22 binding protein (IL-22BP) is a soluble ‘receptor’ for IL-22 that has low homology to the extracellular domain of IL-22R. It neutralizes signal transduction mediated by IL-22 (Dumoutier, L. et al. (2001) J Immunol 166(12):7090-5; Kotenko, S. V. et al. (2001) J Immunol 166(12):7096-103; Xu, W. et al. (2001) Proc Natl Acad Sci USA 98(17):9511-6; Wei C-C et al. (2003) Genes & Immunity 4:204-21117). […]

[4] = target: B3; assay: blocking ELISA: IL-22BP-Fc pre-incubated 30 min with bio-IL-22 (30 ng/ml), added to 50 ng/ml IL-22R-Fc captured on anti-human IgG wells; bound bio-IL-22 read with streptavidin-HRP, A450; blocked partner IL-22R-Fc
Protocol: as §1, §2, §3

[5] = target: B3; assay: ELISA, bio-IL-22 on streptavidin plates, IL-22R-Fc titrated (FIG. 6B)
Protocol: (§4) FIG. 6B depicts the results form an ELISA assay performed in the opposite format, whereby 100 µl of 1 µg/ml biotinylated IL-22 was added to Reacti-Bind 96 well streptavidin-coated plates (Pierce, Rockford, Ill.) for one hour. After washing, Fc fusion receptor was added at various concentrations to the plates for one hour, washed and then detected with goat anti-human IgG-HRP. In FIG. 6A, fifty ng/ml of total Fc in conditioned media (CM) from CHO cells expressing either IL-22R-Fc (▪) or IL-10R2-Fc (O) was captured onto anti-human IgG coated wells. Biotinylated IL-22 (bio-IL-22) at various concentrations was then added to the wells. Bound bio-IL-22 was subsequently detected using streptavidin-HRP. In FIG. 6B, bio-IL-22 (1 μg/ml) was captured onto streptavidin plates. Various concentrations of either IL-22R-Fc (▪) or IL-10R2-Fc (O) in diluted CHO. CM was then added to the wells. Bound receptor Fc was subsequently detected using goat anti-human IgG-HRP.
IL-22 binding to the extracellular domain (ECD) of IL-22R and IL-10R2 was evaluated using two ELISA formats. In the first version, receptor-Fc fusion proteins were immobilized via the Fc domain on anti-human IgG coated plates. Biotinylated IL-22 was then added and detected with streptavidin-HRP. […] Receptor-Fc were then added and detected with HRP-conjugated, anti-hIgG.

[6] = target: B2; assay: ELISA, IL-22R-Fc captured on anti-human IgG, bio-IL-22 titrated (FIG. 6A)
Protocol: as §1
as §4, with “Various concentrations of either IL-22R-Fc (▪) or IL-10R2-Fc (O) in diluted CHO. CM was then added to the wells.” left out
IL-22 binding to the extracellular domain (ECD) of IL-22R and IL-10R2 was evaluated using two ELISA formats. […] Biotinylated IL-22 was then added and detected with streptavidin-HRP. […] Receptor-Fc were then added and detected with HRP-conjugated, anti-hIgG.

[7] = target: T1, IL-22R-Fc/IL-10R2-Fc heterodimer from …; assay: ELISA, 50 ng/ml total Fc from co-expressing CHO captured on anti-human IgG, bio-IL-22 titrated (FIG. 8A)
Protocol: The results shown in FIGS. 6A, 8A-8B, 9A-9B, 10B-10C and 11A-11C were obtained from ELISA assays where receptor Fc from CHO CM were first immobilized via an anti-hIgG coat. Flat bottom, 96-well ELISA plates (Costar, Cambridge, Mass.) were coated overnight at 4° C. with 100 μl goat anti-human IgG antibody (Southern Biotech Associates, Inc., Birmingham, Ala.) at 1 μg/ml in 0.1 M sodium carbonate buffer (pH 9.6). The plates were washed twice with 200 pi phosphate-buffered saline containing 0.05% Tween 20 (PBS-T), blocked with 100 μl 1% BSA (Sigma, St. Louis, Mo.) in PBS-T for 1 hour and washed three times. Following by one hour sequential incubations (100 ul), each separated by three washes, were then employed: a given receptor fusion(s) at a fixed concentration or serially diluted, biotinylated IL-22 (bio-IL-22) at a fixed concentration or serially diluted, and then 1/10,000 dilution of streptavidin-horse radish peroxidase (HRP) (Southern Biotech Associates, Inc., Birmingham, Ala.). […] Colorimetric detection of the peroxidase product was done at 450 nm in a Molecular Devices (Sunnyvale, Calif.) microplate reader.
IL-22 binding to the ECD of IL-22R and IL-10R2 secreted as Fc heterodimer was then evaluated. […] The ability of cytokine to bind was then evaluated using various concentrations of bio-IL-22 as the detector (FIG. 8A). […]

Binder: B1
- IC50 [1]: 4 nM
- IC50 (read off the curve) [2]: ~0.2 nM
- IC50 [3]: 2 nM
- IC50 (read off the curve) [4]: ~0.5 nM

Binder: B2
- EC50 [5]: 0.006 mg/L

Binder: B3
- EC50 [6]: 0.02 mg/L
- fold less bio-IL-22 needed for a comparable signal than with immobilized IL-22R-Fc homodimer [7]: 8 fold
